Bridge positions count the residues as written; N and C are the ends. Square brackets hold non-standard residues; d marks the D form. Ends that are not written are not given here. C20L5A = not defined here; L5A = not defined here; Aib = CC(C)(N)C(=O)O
target: T1, human GLP-1 receptor (human, UniProt P43220 24-463); assay: cell-based or functional assay

| Binder | EC50 [nM] of receptor-mediated cAMP synthesis [nM] |
| --- | --- |
| Y[Aib]EGTFTSDYSIYCDKQAA[Aib]CFVNWLIAGGPSSGAPPPS-NH2 (linker 14-21 via C20L5A; not fully specified; reading uncertain) [mCMV266 (27I, C(14-21)-C20L5A)] | 0.05 |
| Y[Aib]EGTFISDVSIYCDKQAA[Aib]CFVNWLIAGGPSSGAPPPS-NH2 (linker 14-21 via L5A; not fully specified; reading uncertain) [7I, 10V, 27I, C(14-21) - L5A] | 83.9 |
| Y[Aib]EGTFISDVSIYCDKQAA[Aib]CFVNWLIAGGPSSGAPPPS-NH2 (linker 14-21 via C20L5A; not fully specified; reading uncertain) [7I, 10V, 27I, C(14-21) - C20L5A] | ~13700 |

target: T2, human GIP receptor (human, UniProt P48546 22-466); assay: cell-based or functional assay
T2 sequence (looked up): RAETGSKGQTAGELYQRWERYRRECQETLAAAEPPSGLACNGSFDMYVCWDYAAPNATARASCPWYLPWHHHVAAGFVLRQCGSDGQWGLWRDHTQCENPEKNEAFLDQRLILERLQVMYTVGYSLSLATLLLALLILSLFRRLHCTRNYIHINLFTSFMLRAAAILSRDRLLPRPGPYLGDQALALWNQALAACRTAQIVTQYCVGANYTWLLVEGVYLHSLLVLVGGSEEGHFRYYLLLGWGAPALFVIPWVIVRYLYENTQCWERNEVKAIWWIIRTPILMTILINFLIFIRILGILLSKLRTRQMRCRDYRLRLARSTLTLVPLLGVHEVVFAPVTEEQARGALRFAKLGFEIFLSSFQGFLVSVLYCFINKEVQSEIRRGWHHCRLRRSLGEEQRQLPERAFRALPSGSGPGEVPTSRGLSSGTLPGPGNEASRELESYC

| Binder | EC50 [nM] of receptor-mediated cAMP synthesis [nM] |
| --- | --- |
| Y[Aib]EGTFTSDYSIYCDKQAA[Aib]CFVNWLLAGGPSSGAPPPS-NH2 (linker 14-21 via L5A; not fully specified; reading uncertain) [mCMC759 (C(14-21)-L5A)] | 0.03 |
| Y[Aib]EGTFTSDYSIYCDKQAA[Aib]CFVNWLLAGGPSSGAPPPS-NH2 (linker 14-21 via C20L5A; reading uncertain) [C(14-21)-C20L5A] | 0.05 |
| Y[Aib]EGTFTSDYSIYCDKQAA[Aib]CFVNWLIAGGPSSGAPPPS-NH2 (linker 14-21 via C20L5A; not fully specified; reading uncertain) [mCMV266 (27I, C(14-21)-C20L5A)] | 0.07 |
| Y[Aib]EGTFISDVSIYCDKQAA[Aib]CFVNWLIAGGPSSGAPPPS-NH2 (linker 14-21 via L5A; not fully specified; reading uncertain) [7I, 10V, 27I, C(14-21) - L5A] | 12.6 |
| Y[Aib]EGTFISDVSIYCDKQAA[Aib]CFVNWLIAGGPSSGAPPPS-NH2 (linker 14-21 via C20L5A; not fully specified; reading uncertain) [7I, 10V, 27I, C(14-21) - C20L5A] | 303 |

target: T2, human GIP receptor; assay: cell-based or functional assay; remark: another data set of the same source

| Binder | EC50 [nM] of receptor-mediated cAMP synthesis [nM] |
| --- | --- |
| Y[Aib]EGTFTSDYSIYCDKQAA[Aib]CFVNWLLAGGPSSGAPPPS-NH2 (linker 14-21 via L5A; not fully specified; reading uncertain) [mCMC759 (C(14-21)-L5A)] | 0.03 |
| Y[Aib]EGTFTSDYSIYLDKCAQ[Aib]AFVCWLIAQGPSSGAPPPS-NH2 (linker 17-24 via C20L5A; not fully specified; reading uncertain) [19Q, 21A, 27I, 29Q, C(17-24) - C20L5A] | 0.02 |

target: T1, human GLP-1 receptor; assay: cell-based or functional assay; remark: another data set of the same source

| Binder | EC50 of receptor-mediated cAMP synthesis, GLP1R (nM), 02/19 [nM] | EC50 of receptor-mediated cAMP synthesis, GLP1R (nM), 3/25 [nM] | EC50 of receptor-mediated cAMP synthesis, GLP1R (nM), 03/26 [nM] | EC50 of receptor-mediated cAMP synthesis, GLP1R (nM), average [nM] |
| --- | --- | --- | --- | --- |
| Y[Aib]EGTYTNDYSIYLDKCAA[Aib]EFVCWLIAGGPSSGAPPPS-NH2 (linker 17-24 via C20L5A; not fully specified; reading uncertain) [6Y, 8N, 27I, C(17-24)-C20L5A] | 0.06 | 0.11 | 0.07 | 0.08 |
| Y[Aib]EGTFTSDYSIYCDKQAA[Aib]CFVNWLIAGGPSSGAPPPS-NH2 (linker 14-21 via C20L5A; not fully specified; reading uncertain) [mCMV266 (27I, C(14-21)-C20L5A)] | 0.03 | 0.05 | 0.06 | 0.05 |
| Y[Aib]EGTYTSDYSIYCDKQAA[Aib]CFVNWLIAGGPSSGAPPPS-NH2 (linker 14-21 via C20L5A; not fully specified; reading uncertain) [6Y, 27I, C(14-21)-C20L5A] | 0.04 | 0.07 | 0.07 | 0.06 |
| Y[Aib]EGTYTSDYSIYLDKCAA[Aib]EFVCWLIAGGPSSGAPPPS-NH2 (linker 17-24 via C20L5A; not fully specified; reading uncertain) [6Y, 27I, C(17-24)-C20L5A] | 0.05 | 0.07 | 0.06 | 0.06 |

target: T2, human GIP receptor; assay: cell-based or functional assay; remark: another data set of the same source

| Binder | EC50 of receptor-mediated cAMP synthesis, GIPR (nM), 02/19 [nM] | EC50 of receptor-mediated cAMP synthesis, GIPR (nM), 03/26 [nM] | EC50 of receptor-mediated cAMP synthesis, GIPR (nM), average [nM] | EC50 of receptor-mediated cAMP synthesis, GIPR (nM), 03/25 [nM] |
| --- | --- | --- | --- | --- |
| Y[Aib]EGTYTNDYSIYLDKCAA[Aib]EFVCWLIAGGPSSGAPPPS-NH2 (linker 17-24 via C20L5A; not fully specified; reading uncertain) [6Y, 8N, 27I, C(17-24)-C20L5A] | 2.48 | 3.29 | 2.88 |  |
| Y[Aib]EGTFTSDYSIYCDKQAA[Aib]CFVNWLLAGGPSSGAPPPS-NH2 (linker 14-21 via C20L5A; reading uncertain) [C(14-21)-C20L5A] | 0.07 | 0.04 | 0.05 | 0.04 |
| Y[Aib]EGTFTSDYSIYCDKQAA[Aib]CFVNWLIAGGPSSGAPPPS-NH2 (linker 14-21 via C20L5A; not fully specified; reading uncertain) [mCMV266 (27I, C(14-21)-C20L5A)] | 0.08 | 0.06 | 0.07 | 0.06 |
| Y[Aib]EGTYTSDYSIYCDKQAA[Aib]CFVNWLIAGGPSSGAPPPS-NH2 (linker 14-21 via C20L5A; not fully specified; reading uncertain) [6Y, 27I, C(14-21)-C20L5A] | 0.5 | 0.6 | 0.56 | 0.58 |
| Y[Aib]EGTYTSDYSIYLDKCAA[Aib]EFVCWLIAGGPSSGAPPPS-NH2 (linker 17-24 via C20L5A; not fully specified; reading uncertain) [6Y, 27I, C(17-24)-C20L5A] | 0.27 | 0.25 | 0.26 | 0.27 |
